Assay results from patent publication US20230340087A1 (published 2023).

Target: T1, Clostridium difficile toxin A (TcdA) (Clostridium difficile, UniProt P16154 1-2710)
T1 construct: also called TxA; rTcdA
Test: binding kinetics, method not stated

T1 sequence (P16154 whole entry): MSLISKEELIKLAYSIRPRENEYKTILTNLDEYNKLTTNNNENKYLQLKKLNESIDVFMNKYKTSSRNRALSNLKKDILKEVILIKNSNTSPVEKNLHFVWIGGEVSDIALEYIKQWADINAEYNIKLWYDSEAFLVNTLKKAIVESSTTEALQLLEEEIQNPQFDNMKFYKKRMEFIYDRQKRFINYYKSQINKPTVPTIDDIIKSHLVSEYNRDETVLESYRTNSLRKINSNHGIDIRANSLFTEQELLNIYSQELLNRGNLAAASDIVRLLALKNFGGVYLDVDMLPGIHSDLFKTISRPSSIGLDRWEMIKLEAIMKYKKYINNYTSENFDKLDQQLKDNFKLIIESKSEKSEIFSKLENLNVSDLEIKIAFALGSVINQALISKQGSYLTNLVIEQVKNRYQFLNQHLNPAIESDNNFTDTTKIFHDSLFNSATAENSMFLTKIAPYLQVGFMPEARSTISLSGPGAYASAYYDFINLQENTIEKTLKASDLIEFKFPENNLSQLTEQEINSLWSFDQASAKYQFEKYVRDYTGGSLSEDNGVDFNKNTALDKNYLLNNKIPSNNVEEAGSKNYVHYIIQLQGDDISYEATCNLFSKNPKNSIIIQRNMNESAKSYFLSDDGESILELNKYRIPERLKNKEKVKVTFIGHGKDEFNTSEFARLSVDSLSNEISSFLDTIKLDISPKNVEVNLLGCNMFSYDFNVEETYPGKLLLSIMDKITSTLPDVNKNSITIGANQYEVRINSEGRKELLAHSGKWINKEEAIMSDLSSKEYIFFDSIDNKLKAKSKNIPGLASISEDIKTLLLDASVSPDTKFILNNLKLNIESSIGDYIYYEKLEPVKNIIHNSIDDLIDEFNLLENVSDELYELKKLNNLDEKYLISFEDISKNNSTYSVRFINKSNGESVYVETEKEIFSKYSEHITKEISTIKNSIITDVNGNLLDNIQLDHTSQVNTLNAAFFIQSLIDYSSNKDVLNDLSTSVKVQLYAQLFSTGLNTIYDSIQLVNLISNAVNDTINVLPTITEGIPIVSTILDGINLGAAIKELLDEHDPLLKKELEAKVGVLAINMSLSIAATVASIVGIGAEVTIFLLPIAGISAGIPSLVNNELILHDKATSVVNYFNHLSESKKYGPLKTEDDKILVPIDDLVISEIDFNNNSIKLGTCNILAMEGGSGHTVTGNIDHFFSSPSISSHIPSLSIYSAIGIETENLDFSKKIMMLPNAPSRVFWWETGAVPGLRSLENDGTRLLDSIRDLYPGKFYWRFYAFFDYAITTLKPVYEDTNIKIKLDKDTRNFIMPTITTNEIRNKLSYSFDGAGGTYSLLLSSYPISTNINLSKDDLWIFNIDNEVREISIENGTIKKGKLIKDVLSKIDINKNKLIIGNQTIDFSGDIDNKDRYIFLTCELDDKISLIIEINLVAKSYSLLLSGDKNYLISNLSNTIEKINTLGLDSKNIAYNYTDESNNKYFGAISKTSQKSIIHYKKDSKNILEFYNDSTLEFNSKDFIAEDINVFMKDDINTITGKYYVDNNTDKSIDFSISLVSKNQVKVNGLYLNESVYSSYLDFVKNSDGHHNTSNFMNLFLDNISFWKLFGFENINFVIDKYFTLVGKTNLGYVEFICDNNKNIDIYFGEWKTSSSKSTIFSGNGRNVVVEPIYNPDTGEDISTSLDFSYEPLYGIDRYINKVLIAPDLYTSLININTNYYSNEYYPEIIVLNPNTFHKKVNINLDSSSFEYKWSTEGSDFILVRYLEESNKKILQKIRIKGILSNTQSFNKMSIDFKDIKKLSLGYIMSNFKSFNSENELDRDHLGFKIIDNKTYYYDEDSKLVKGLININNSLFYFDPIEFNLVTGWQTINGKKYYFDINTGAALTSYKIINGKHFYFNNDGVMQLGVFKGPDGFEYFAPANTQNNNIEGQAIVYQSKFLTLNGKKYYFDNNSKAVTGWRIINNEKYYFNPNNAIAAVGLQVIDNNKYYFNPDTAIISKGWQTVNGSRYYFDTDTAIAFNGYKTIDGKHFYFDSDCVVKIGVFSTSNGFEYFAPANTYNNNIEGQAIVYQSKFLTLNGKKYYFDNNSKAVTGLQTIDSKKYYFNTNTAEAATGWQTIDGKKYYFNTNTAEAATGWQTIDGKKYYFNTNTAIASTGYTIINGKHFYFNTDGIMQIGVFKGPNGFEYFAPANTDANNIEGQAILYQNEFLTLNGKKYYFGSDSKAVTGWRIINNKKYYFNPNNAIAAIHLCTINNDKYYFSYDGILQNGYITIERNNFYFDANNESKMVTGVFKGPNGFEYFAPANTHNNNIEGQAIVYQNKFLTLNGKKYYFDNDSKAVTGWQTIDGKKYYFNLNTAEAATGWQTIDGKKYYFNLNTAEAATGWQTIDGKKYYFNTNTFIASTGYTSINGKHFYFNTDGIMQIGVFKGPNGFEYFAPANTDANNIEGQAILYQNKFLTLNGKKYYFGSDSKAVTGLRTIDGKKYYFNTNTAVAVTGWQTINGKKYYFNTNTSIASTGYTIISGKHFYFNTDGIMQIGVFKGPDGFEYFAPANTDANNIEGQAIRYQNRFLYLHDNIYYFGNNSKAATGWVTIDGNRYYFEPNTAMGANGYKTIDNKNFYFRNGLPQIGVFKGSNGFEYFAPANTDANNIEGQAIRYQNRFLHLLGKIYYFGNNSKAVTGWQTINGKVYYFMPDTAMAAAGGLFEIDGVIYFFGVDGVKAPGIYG

B1: ABAB binding agent (AH3/5D/AA6/E3), tetra-specific, tetrameric VHH binding agent (designed binder)
chain: QVQLVETGGGLVQPGGSLRLSCAASGFTLDYSSIGWFRQAPGKEREGVSCISSSGDSTKYADSVKGRFTTSRDNAKNTVYLQMNSLKPDDTAVYYCAAFRATMCGVFPLSPYGKDDWGKGTLVTVSSGGGGSGGGGSGGGGSQVQLVESGGGLVQPGGSLRLSCEASGFTLDYYGIGWFRQPPGKEREAVSYISASARTILYADSVKGRFTISRDNAKNAVYLQMNSLKREDTAVYYCARRRFSASSVNRWLADDYDVWGRGTQVAVSSGGGSGGGSGGGSGGGSQLQLVETGGGLVQPGGSLRLSCAASGFTFSDYVMTWVRQAPGKGPEWIATINTDGSTMRDDSTKGRFTISRDNAKNTLYLQMTSLKPEDTALYYCARGRVISASAIRGAVRGPGTQVTVSSGGGGSGGGGSGGGGSQVQLVESGGGLVQTGGSLRLSCASSGSIAGFETVTWSRQAPGKSLQWVASMTKTNNEIYSDSVKGRFIISRDNAKNTVYLQMNSLKPEDTGVYFCKGPELRGQGIQVTVSS
notes: also called r-ABAB; recombinant ABAB
**Q.** Which Kd does the source give for B1 here?
**A.** The Kd was 0.002 nM.

**Q.** What about the koff of the same binder?
**A.** The koff was 1.21e-06 s⁻¹.

**Q.** And the kon?
**A.** Its kon is 696000 M⁻¹ s⁻¹.

B2: AA6 VHH peptide monomer (VHH)
VHH: QLQLVETGGGLVQPGGSLRLSCAASGFTFSDYVMTWVRQAPGKGPEWIATINTDGSTMRDDSTKGRFTISRDNAKNTLYLQMTSLKPEDTALYYCARGRVISASAIRGAVRGPGTQVTVSS
**Q.** How did the Kd turn out when B2 was run?
**A.** The Kd was 19.7 nM.

**Q.** And the koff?
**A.** The koff was 0.000692 s⁻¹.

**Q.** And the kon?
**A.** Its kon is 35200 M⁻¹ s⁻¹.
